Results from US7083777B1, “Immunomodulating polymers” (priority 1999, dated 2006).

Columns and labels:
human T cells = assay type: cell-based; conditions: 20 μg/ml, 6 days post-incubation
B. fragilis [1] = experiment: Rat model of intraabdominal sepsis, abscess formation after B. fragilis challenge; assay type: in vivo; conditions: 50 μg dose
[2] = 0.01% solution of about 1500 kDa HA; model normally produces more than 70% adhesions; cited from earlier work
B. fragilis [3] = experiment: Protection against abscess formation by recombinant cytokine given intracardially at challenge; assay type: in vivo, rat; conditions: 100 pg intracardiac at time of challenge, 10^8 cfu B. fragilis; Experiment A
B. fragilis [4] = experiment: IL-10-mediated protection against abscess formation; assay type: in vivo, rat
Procedure: In order to examine further the role of IL-10 in the abscess model, male Wistar rats (150 g) were treated with recombinant IL-10, anti-IL-10, or isotype antibody control beginning on the day of challenge with 1×10^8 cfu B. fragilils. Further comparison was made using a group treated with Streptococcus pneumoniae type I CP alone or together with anti-IL-10. Animals were sacrificed and examined six days after challenge.

[5] = 0.2 μg i.p. at 0, 24, 48 and 72 hours relative to challenge

Molecule: poly-L-lysine
- T cell activation (in words) (human T cells): did not stimulate T cell proliferation
- Protection against abscess formation vs saline (in words) (B. fragilis [1]): did not protect against abscess formation

Molecule: hyaluronic acid [HA]
- prevention of severe intra-abdominal adhesions (in words) [2]: effectively prevents all severe intra-abdominal adhesions

B1: IL-4: interleukin 4 given at 100 pg as comparison (protein, UniProt P05112 25-153, looked up)
Interleukin-4: HKCDITLQEIIKTLNSLTEQKTLCTELTVTDIFAASKNTTEKETFCRAATVLRQFYSHHEKDTRCLGATAQQFHRHKQLIRFLKRLDRNLWGLAGLNSCPVKEANQSTLENFLERLKTIMREKYSKCSS
- Abscess formation (%) (B. fragilis [3]): 75%

B2: recombinant IL-10: recombinant interleukin-10 (protein, UniProt P22301 19-178, looked up)
Interleukin-10: SPGQGTQSENSCTHFPGNLPNMLRDLRDAFSRVKTFFQMKDQLDNLLLKESLLEDFKGYLGCQALSEMIQFYLEEVMPQAENQDPDIKAHVNSLGENLKTLRLRLRRCHRFLPCENKSKAVEQVKNAFNKLQEKGIYKAMSEFDIFINYIEAYMTMKIRN
- Protection against abscess formation vs isotype control antibody (in words) (B. fragilis [4]; 0.2 μg i.p.): protected from abscess formation
- Abscess formation (%) (B. fragilis [4]; [5]): 13%
- No. animals with abscess/total (B. fragilis [4]; [5]): 2/16
